Data on four molecules can be found in publication PMC11711466, “Reconstitution of human DNA licensing and the structural and functional analysis of key intermediates” (Nature Communications, 2024).

The target of test [1] is T1, human MCM2 (human, UniProt P49736 1-904).
T1 construct: human MCM2 (hMCM2); Subunit of m6; also called hMCM2; source: HEK293-F, co-expressed hMCM2-7; in lysate (co-purification) and purified as hMCM2-7 (Ni-NTA, StrepTrapXT); not shown: twin Strep, N-terminal, kept
The test is described as follows: cryo-EM structure; hOCCM from a low-salt washed pre-RC reaction with ATPγS, eluted from the DNA beads with DNaseI; 6.09 Å. The conditions noted are these: both partners purified.

Test [2] deals with T2, human ORC1 (human, UniProt Q13415 1-861).
T2 construct: human origin recognition complex subunit 1 (hORC1); Subunit of m1; also called hORC1; hORC1 N-tag; source: S. cerevisiae YC658, co-overexpressed with hORC2-5; in lysate (co-purification) and purified as hORC1-5 (StrepXT, heparin, glycerol gradient); not shown: Twin Strep-tag, N-terminal, kept
T2 sequence (looked up): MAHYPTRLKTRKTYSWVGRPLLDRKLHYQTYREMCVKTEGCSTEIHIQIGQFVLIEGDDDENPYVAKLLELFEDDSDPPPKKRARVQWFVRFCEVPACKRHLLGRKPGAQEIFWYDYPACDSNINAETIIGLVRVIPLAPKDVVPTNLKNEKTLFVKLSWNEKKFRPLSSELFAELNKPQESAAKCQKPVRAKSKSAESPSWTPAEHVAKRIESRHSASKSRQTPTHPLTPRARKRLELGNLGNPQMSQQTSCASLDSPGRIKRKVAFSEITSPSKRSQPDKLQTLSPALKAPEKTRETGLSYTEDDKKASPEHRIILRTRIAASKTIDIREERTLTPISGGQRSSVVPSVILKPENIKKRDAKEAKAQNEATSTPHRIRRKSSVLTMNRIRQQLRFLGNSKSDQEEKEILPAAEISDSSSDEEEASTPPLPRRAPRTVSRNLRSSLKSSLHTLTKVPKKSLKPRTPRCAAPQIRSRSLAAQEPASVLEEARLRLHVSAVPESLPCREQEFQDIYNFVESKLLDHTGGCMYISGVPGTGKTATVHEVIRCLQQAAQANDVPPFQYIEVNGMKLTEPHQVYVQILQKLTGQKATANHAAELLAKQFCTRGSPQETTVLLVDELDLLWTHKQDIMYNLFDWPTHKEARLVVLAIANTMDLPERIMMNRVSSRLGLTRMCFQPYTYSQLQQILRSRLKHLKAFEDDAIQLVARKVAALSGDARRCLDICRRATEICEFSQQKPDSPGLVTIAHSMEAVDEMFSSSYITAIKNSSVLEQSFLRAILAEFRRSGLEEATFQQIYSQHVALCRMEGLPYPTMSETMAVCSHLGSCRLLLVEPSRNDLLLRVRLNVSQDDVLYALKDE
The test is described as follows: affinity co-purification; hORC1-5 co-overexpressed in G1-arrested budding yeast; StrepXT column on the N-terminal Strep tag of hORC1, then heparin column and glycerol gradient. The following applies: partners not purified.

For test [3], the target named is T3, human MCM6 (human, UniProt Q14566 1-821).
T3 construct: Subunit of m6; also called hMCM6; source: HEK293-F, co-expressed hMCM2-7; in lysate (co-purification) and purified as hMCM2-7 (Ni-NTA, StrepTrapXT)
T3 sequence (looked up): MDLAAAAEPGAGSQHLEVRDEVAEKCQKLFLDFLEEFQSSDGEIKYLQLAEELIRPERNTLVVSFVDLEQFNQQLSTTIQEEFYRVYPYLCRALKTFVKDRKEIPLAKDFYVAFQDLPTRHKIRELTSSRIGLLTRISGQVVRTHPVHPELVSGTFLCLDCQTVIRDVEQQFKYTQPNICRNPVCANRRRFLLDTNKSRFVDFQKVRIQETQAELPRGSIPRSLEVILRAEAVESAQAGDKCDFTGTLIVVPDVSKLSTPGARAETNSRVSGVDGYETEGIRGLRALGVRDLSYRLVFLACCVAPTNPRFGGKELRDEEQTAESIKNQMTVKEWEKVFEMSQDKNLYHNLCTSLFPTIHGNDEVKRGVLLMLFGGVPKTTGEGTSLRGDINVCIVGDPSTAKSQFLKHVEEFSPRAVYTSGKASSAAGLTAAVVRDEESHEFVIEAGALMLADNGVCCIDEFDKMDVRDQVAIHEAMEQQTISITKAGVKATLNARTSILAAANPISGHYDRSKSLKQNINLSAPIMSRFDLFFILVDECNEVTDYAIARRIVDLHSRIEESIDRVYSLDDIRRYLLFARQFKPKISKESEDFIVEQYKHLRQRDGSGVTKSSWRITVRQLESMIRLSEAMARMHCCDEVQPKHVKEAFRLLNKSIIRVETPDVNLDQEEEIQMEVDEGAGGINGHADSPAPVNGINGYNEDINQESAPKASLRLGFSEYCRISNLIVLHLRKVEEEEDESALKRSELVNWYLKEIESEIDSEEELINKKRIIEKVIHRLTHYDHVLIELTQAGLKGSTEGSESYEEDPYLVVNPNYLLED
Briefly: cryo-EM structure; hOCCM from a low-salt washed pre-RC reaction with ATPγS, eluted from the DNA beads with DNaseI; 6.09 Å. The conditions noted are these: both partners purified.

Test [4] deals with T4, human MCM3 (human, UniProt P25205 1-808).
T4 construct: Subunit of m6; also called hMCM3; source: HEK293-F, co-expressed hMCM2-7; in lysate (co-purification) and purified as hMCM2-7 (Ni-NTA, StrepTrapXT)
T4 sequence (looked up): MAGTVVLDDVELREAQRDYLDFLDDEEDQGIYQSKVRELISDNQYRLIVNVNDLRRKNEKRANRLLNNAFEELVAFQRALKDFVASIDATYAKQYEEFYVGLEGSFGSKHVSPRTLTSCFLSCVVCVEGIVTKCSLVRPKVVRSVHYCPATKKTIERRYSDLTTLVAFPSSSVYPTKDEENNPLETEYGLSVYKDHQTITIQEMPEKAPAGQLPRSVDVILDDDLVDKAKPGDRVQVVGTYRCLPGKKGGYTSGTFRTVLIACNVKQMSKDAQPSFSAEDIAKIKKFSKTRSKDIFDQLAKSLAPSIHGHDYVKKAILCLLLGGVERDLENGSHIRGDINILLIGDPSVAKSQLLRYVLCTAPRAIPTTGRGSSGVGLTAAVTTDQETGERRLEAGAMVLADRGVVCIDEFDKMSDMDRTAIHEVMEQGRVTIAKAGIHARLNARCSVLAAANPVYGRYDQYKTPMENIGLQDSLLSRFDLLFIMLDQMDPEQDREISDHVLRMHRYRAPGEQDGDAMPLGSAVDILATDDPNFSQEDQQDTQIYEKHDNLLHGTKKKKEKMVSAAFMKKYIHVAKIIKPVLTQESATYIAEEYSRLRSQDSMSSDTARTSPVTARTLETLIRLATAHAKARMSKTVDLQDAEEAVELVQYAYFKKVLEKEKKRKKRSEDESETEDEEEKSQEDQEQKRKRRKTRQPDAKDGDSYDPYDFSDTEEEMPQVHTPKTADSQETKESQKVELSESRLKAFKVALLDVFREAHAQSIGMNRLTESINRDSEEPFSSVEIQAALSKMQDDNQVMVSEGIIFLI
Described as above. The following applies: both partners purified.

T1 sequence (P49736 whole entry): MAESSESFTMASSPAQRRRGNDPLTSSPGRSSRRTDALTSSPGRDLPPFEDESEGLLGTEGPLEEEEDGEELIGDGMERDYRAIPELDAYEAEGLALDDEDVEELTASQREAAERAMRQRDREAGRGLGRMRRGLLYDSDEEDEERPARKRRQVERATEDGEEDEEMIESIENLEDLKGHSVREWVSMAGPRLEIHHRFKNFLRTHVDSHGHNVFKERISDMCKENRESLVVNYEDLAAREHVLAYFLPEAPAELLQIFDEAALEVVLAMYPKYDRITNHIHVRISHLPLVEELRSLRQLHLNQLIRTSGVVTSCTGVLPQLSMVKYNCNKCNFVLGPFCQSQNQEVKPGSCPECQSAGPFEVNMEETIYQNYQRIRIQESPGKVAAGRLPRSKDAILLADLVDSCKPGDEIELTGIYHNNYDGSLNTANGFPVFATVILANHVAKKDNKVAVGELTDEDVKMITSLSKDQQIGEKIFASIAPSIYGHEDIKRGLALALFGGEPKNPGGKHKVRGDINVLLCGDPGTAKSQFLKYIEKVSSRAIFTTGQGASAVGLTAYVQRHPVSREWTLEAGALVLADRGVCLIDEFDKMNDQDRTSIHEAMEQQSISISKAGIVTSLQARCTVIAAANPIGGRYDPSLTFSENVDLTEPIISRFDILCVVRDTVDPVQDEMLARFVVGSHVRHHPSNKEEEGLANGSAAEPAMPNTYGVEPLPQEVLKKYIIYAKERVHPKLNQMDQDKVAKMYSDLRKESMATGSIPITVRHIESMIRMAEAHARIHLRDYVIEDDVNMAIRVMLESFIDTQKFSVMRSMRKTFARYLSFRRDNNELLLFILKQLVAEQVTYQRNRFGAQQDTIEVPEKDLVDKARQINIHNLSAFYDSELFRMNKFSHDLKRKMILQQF

B1: human ORC3 (natural protein, UniProt Q9UBD5 1-711, looked up)
chain: MATSSMSKGCFVFKPNSKKRKISLPIEDYFNKGKNEPEDSKLRFETYQLIWQQMKSENERLQEELNKNLFDNLIEFLQKSHSGFQKNSRDLGGQIKLREIPTAALVLGVNVTDHDLTFGSLTEALQNNVTPYVVSLQAKDCPDMKHFLQKLISQLMDCCVDIKSKEEESVHVTQRKTHYSMDSLSSWYMTVTQKTDPKMLSKKRTTSSQWQSPPVVVILKDMESFATKVLQDFIIISSQHLHEFPLILIFGIATSPIIIHRLLPHAVSSLLCIELFQSLSCKEHLTTVLDKLLLTTQFPFKINEKVLQVLTNIFLYHDFSVQNFIKGLQLSLLEHFYSQPLSVLCCNLPEAKRRINFLSNNQCENIRRLPSFRRYVEKQASEKQVALLTNERYLKEETQLLLENLHVYHMNYFLVLRCLHKFTSSLPKYPLGRQIRELYCTCLEKNIWDSEEYASVLQLLRMLAKDELMTILEKCFKVFKSYCENHLGSTAKRIEEFLAQFQSLDETKEEEDASGSQPKGLQKTDLYHLQKSLLEMKELRRSKKQTKFEVLRENVVNFIDCLVREYLLPPETQPLHEVVYFSAAHALREHLNAAPRIALHTALNNPYYYLKNEALKSEEGCIPNIAPDICIAYKLHLECSRLINLVDWSEAFATVVTAAEKMDANSATSEEMNEIIHARFIRAVSELELLGFIKPTKQKTDHVARLTWGGC
notes: human origin recognition complex subunit 3 (hORC3); Subunit of m1; also called hORC3; source: S. cerevisiae YC658, co-overexpressed with the other hORC1-5 subunits; in lysate (co-purification) and purified as hORC1-5
In the case of B1, the binding result in test [1] and in test [2] was “binds” each time.

B2: human ORC5 (natural protein, UniProt O43913 1-435, looked up)
chain: MPHLENVVLCRESQVSILQSLFGERHHFSFPSIFIYGHTASGKTYVTQTLLKTLELPHVFVNCVECFTLRLLLEQILNKLNHLSSSEDGCSTEITCETFNDFVRLFKQVTTAENLKDQTVYIVLDKAEYLRDMEANLLPGFLRLQELADRNVTVLFLSEIVWEKFRPNTGCFEPFVLYFPDYSIGNLQKILSHDHPPEYSADFYAAYINILLGVFYTVCRDLKELRHLAVLNFPKYCEPVVKGEASERDTRKLWRNIEPHLKKAMQTVYLREISSSQWEKLQKDDTDPGQLKGLSAHTHVELPYYSKFILIAAYLASYNPARTDKRFFLKHHGKIKKTNFLKKHEKTSNHLLGPKPFPLDRLLAILYSIVDSRVAPTANIFSQITSLVTLQLLTLVGHDDQLDGPKYKCTVSLDFIRAIARTVNFDIIKYLYDFL
notes: human origin recognition complex subunit 5 (hORC5); Subunit of m1; also called hORC5; source: S. cerevisiae YC658, co-overexpressed with the other hORC1-5 subunits; in lysate (co-purification) and purified as hORC1-5
Turning to B2, the binding result in test [3] and in test [2] was “binds” throughout.

B3: human ORC4 (natural protein, UniProt O43929 1-436, looked up)
chain: MSSRKSKSNSLIHTECLSQVQRILRERFCRQSPHSNLFGVQVQYKHLSELLKRTALHGESNSVLIIGPRGSGKTMLINHALKELMEIEEVSENVLQVHLNGLLQINDKIALKEITRQLNLENVVGDKVFGSFAENLSFLLEALKKGDRTSSCPVIFILDEFDLFAHHKNQTLLYNLFDISQSAQTPIAVIGLTCRLDILELLEKRVKSRFSHRQIHLMNSFGFPQYVKIFKEQLSLPAEFPDKVFAEKWNENVQYLSEDRSVQEVLQKHFNISKNLRSLHMLLMLALNRVTASHPFMTAVDLMEASQLCSMDSKANIVHGLSVLEICLIIAMKHLNDIYEEEPFNFQMVYNEFQKFVQRKAHSVYNFEKPVVMKAFEHLQQLELIKPMERTSGNSQREYQLMKLLLDNTQIMNALQKYPNCPTDVRQWATSSLSWL
notes: human origin recognition complex subunit 4 (hORC4); Subunit of m1; also called hORC4; source: S. cerevisiae YC658, co-overexpressed with the other hORC1-5 subunits; in lysate (co-purification) and purified as hORC1-5
On to B3, for which the binding result in test [3] and in test [2] was “binds” throughout.

B4: human ORC2 (natural protein, UniProt Q13416 1-577, looked up)
chain: MSKPELKEDKMLEVHFVGDDDVLNHILDREGGAKLKKERAQLLVNPKKIIKKPEYDLEEDDQEVLKDQNYVEIMGRDVQESLKNGSATGGGNKVYSFQNRKHSEKMAKLASELAKTPQKSVSFSLKNDPEITINVPQSSKGHSASDKVQPKNNDKSEFLSTAPRSLRKRLIVPRSHSDSESEYSASNSEDDEGVAQEHEEDTNAVIFSQKIQAQNRVVSAPVGKETPSKRMKRDKTSDLVEEYFEAHSSSKVLTSDRTLQKLKRAKLDQQTLRNLLSKVSPSFSAELKQLNQQYEKLFHKWMLQLHLGFNIVLYGLGSKRDLLERFRTTMLQDSIHVVINGFFPGISVKSVLNSITEEVLDHMGTFRSILDQLDWIVNKFKEDSSLELFLLIHNLDSQMLRGEKSQQIIGQLSSLHNIYLIASIDHLNAPLMWDHAKQSLFNWLWYETTTYSPYTEETSYENSLLVKQSGSLPLSSLTHVLRSLTPNARGIFRLLIKYQLDNQDNPSYIGLSFQDFYQQCREAFLVNSDLTLRAQLTEFRDHKLIRTKKGTDGVEYLLIPVDNGTLTDFLEKEEEEA
notes: human origin recognition complex subunit 2 (hORC2); Subunit of m1; also called hORC2; source: S. cerevisiae YC658, co-overexpressed with the other hORC1-5 subunits; in lysate (co-purification) and purified as hORC1-5
As to B4, the binding result in test [4] and in test [2] was “binds” in each case.
